The source of these data is patent US20190382475.

Substitutions are numbered along the chain they refer to. Names may count otherwise.

What all share (assay): LC-UV-ESI-MS of purified Fab after co-expression of two heavy and two light chains in HEK293T (chain competition); competing chains not named
In data set [1] the target is anti c-Kit Fab heavy chain Q39K/K147D/S165R.
For data set [2], the target named is anti c-Kit Fab heavy chain Q39/K147/S165 (wild type).
Data set [3] addresses anti c-Kit Fab heavy chain Q39/K147/S165D.
The target in data set [4] is anti c-Kit Fab heavy chain Q39K/K147D/S165.
Data set [5] deals with anti c-Kit Fab heavy chain Q39D/K147/S165D.
For data set [6], the target named is anti c-Kit Fab heavy chain Q39D/K147/S165.
Data set [7] addresses anti c-Kit Fab heavy chain Q39/K147D/S165.
The target in data set [8] is anti c-Kit Fab heavy chain Q39K/K147/S165.
Data set [9] has as its target anti c-Kit Fab heavy chain Q39K/K147/S165R.
Data set [10] has as its target anti c-Kit Fab heavy chain Q39/K147/S165R.
The target of data set [11] is anti c-Kit Fab heavy chain Q39/K147D/S165R.

B1: anti c-Kit Fab light chain Q38D/Q124K/K169D (protein)
chain: DIQMTQSPSSLSASVGDRVTITCRASQSISSYLNWYQDKPGKAPKLLIYYTSRLQSGVPSRFSGSGSGTDFTLTISSLQPEDFATYYCQQGRRLWSFGGGTKVEIKRTVAAPSVFIFPPSDEKLKSGTASVVCLLNNFYPREAKVQWKVDNALQSGNSQESVTEQDSDDSTYSLSSTLTLSKADYEKHKVYACEVTHQGLSSPVTKSFNRGEC
With B1, in data set [1], the Correct pairing (%) is 100%.

B2: anti c-Kit Fab light chain Q38/Q124/K169 (wild type) (protein)
chain: B1 chain with D38Q, K123Q, D168K
B2: the Correct pairing (%) worked out at 63% in [2] and 87% in [3].

B3: anti c-Kit Fab light chain Q38D/Q124K/K169 (protein)
chain: B1 chain with D168K
Regarding B3, in data set [4], the Correct pairing (%) worked out at 95%.

B4: anti c-Kit Fab light chain Q38K/Q124/K169 (protein)
chain: B1 chain with D38K, K123Q, D168K
As for B4, the Correct pairing (%) in [5] and in data set [6] was 95% each time.

B5: anti c-Kit Fab light chain Q38/Q124K/K169 (protein)
chain: B1 chain with D38Q, D168K
The protein B5 displayed a Correct pairing (%) in data set [7] of 91%.

B6: anti c-Kit Fab light chain Q38K/Q124D/K169 (protein)
chain: B1 chain with D38K, K123D, D168K
As to B6, the Correct pairing (%) in data set [5] stood at 100%; in [6] it was 93%.

B7: anti c-Kit Fab light chain Q38D/Q124/K169 (protein)
chain: B1 chain with K123Q, D168K
The protein B7 came in with a Correct pairing (%) in data set [8] of 74%.

B8: anti c-Kit Fab light chain Q38D/Q124/K169D (protein)
chain: B1 chain with K123Q
For the protein B8, the Correct pairing (%) in [9] was determined as 75%.

B9: anti c-Kit Fab light chain Q38/Q124/K169D (protein)
chain: B1 chain with D38Q, K123Q
Take B9: in data set [10], the Correct pairing (%) was 68%.

B10: anti c-Kit Fab light chain Q38/Q124D/K169 (protein)
chain: B1 chain with D38Q, K123D, D168K
As to B10, the values for the Correct pairing (%) in data set [2] and in data set [3] were 91% and 88%, respectively.

B11: anti c-Kit Fab light chain Q38/Q124K/K169D (protein)
chain: B1 chain with D38Q
B11 registered a Correct pairing (%) in [11] of 90%.
